The values that follow are results of earlier work, collected in paper PMC3583350.

For the series, the target named is FcεRIα ECD (Homo sapiens) (UniProt P12319).
UniProt P12319, sequence (P12319 26-205): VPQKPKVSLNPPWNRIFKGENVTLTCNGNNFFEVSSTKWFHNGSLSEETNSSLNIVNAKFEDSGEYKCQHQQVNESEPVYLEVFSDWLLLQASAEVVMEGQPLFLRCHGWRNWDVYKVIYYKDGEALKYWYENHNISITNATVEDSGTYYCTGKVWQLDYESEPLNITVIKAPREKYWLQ

On to IgE-Fc Fc (from UniProt P01854), for which the equilibrium dissociation constant (Kd) (commonly the constant that tells how readily two partners part at equilibrium) was 1 nM.
